Our source for the binding result, EC50 and MFImax values is patent EP4714971A1 (Shanghai Hansoh Biomedical Co., Ltd., dated 2024).

As a reminder, the EC50 is the concentration giving half of the maximal effect.

For one assay, the target named is T1, SEZ6L-Fc protein (human, UniProt Q9BYH1 29-958, limits assumed).
T1 construct: The construct is not described beyond its name; also called SEZ6L protein; Human SEZ6L1; not shown: Fc
T1 sequence (looked up): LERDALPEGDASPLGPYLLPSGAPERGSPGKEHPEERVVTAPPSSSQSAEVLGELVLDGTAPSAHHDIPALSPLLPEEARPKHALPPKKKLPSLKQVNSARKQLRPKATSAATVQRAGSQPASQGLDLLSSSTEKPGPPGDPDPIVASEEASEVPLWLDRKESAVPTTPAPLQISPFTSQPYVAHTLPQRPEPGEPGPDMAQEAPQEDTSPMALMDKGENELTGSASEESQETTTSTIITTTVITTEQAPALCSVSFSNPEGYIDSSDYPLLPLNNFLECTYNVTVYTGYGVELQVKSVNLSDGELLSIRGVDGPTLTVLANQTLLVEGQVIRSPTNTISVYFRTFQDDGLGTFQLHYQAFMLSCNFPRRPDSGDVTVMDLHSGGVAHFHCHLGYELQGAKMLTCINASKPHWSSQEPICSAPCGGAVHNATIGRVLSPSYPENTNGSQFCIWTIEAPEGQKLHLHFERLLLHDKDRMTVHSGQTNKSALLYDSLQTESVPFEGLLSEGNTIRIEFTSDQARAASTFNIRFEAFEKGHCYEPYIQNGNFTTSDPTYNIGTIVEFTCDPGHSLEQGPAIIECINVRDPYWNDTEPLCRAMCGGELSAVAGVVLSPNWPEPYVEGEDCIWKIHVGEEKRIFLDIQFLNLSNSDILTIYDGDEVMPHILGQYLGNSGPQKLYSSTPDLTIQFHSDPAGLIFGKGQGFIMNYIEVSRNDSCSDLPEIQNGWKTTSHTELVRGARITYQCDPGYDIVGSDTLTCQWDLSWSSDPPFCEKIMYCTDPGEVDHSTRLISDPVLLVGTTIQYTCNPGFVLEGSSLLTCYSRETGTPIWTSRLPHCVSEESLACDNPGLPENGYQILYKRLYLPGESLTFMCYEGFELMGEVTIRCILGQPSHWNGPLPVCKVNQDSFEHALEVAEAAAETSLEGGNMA
As to the kind of experiment: ELISA, coated Fc fusion protein at 1 ug/mL. A general note: In an ELISA, binding on a coated surface is turned into a signal by an enzyme label.

Assay [1] concerns the target T2, human SEZ6 expressed on stably transfected CHO-K1 cells (human, UniProt Q53EL9 20-994).
T2 construct: also called CHO-SEZ6; hSEZ6
T2 sequence: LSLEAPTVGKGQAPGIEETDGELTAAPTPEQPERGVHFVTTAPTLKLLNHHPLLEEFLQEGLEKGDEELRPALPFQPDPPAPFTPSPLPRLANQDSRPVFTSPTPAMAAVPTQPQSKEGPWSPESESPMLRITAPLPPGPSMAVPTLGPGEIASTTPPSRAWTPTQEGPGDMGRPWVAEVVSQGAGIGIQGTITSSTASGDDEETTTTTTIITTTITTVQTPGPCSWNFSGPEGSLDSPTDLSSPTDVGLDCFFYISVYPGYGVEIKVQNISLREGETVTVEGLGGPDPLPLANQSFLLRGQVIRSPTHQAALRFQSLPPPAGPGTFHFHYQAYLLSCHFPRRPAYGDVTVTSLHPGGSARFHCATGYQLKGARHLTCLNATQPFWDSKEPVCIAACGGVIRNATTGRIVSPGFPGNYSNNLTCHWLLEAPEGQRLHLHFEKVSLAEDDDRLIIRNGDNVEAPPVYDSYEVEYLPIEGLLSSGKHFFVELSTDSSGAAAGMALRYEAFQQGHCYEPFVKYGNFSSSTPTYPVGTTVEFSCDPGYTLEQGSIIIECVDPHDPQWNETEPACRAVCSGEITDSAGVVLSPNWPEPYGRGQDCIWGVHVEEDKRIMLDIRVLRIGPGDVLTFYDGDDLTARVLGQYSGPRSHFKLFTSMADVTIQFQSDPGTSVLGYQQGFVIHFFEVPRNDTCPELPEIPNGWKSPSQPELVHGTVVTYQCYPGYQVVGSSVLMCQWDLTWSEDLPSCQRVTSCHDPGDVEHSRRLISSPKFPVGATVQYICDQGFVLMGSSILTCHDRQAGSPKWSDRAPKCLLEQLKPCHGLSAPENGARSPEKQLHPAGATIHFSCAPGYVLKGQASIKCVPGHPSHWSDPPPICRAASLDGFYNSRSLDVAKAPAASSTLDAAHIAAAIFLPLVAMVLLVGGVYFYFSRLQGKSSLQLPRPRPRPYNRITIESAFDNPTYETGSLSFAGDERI
Briefly: flow cytometry on CHO-K1 cells expressing human SEZ6.

B1: PR3178 (antibody, human IgG1, kappa, V domains shown)
VH: QVQLVQSGAEVKKPGASVKVSCKASGYTFTDYEMHWVRQAPGQGLEWMGGIDPESDNTVYNQKFKGRVTLTEDTSTSTAYMELRSLRSEDTAVYYCTRGDWYFDVWGQGTTVTVSS
VL: DIVMTQSPDSLAVSLGERATINCKSSQSLLNSRTRENYLAWYQQKPGQPPKLLIYWASTRESGVPDRFSGSGSGTDFTLTISSLQAEDVAVYYCGQSYNLFTFGQGTKLEIKR
notes: Humanized, human IgG1, kappa; also called humanized antibody of cAb3009
For B1, the binding result with SEZ6L-Fc protein was “no binding (tested: 10 nM)”.

B2: hSC200 (hSC17.200) (antibody, human IgG1, kappa, V domains shown)
VH: EVQLVQSGAEVKKPGESLKISCKGSGYSFTSSWINWVRQMPGKGLEWMGRIYPGEGDTNYNGNFEGQVTISADKSISTAYLQWSSLKASDTAMYYCTRGLVMDYWGQGTLVTVSS
VL: EIVLTQSPATLSLSPGERATLSCRASQSVDYNGISYMHWYQQKPGQAPRLLIYAASNVQSGIPARFSGSGSGTDFTLTISSLEPEDFAVYYCQQSIEDPPTFGGGTKVEIKR
notes: also called control molecule; control antibody
In assay [1], B2 yielded an EC50 of 210 pM and an MFImax of 3940.
